Experiments:
[1] = biological target: ICAM-1 (recombinant, Sino Biological 10346-H03H) (UniProt P05362); assay: SPR; competitive: αI domains at 5 µM preincubated with simvastatin (3-100 µM), injected over immobilised iC3b or ICAM-1; HBST with 1 mM MgCl2 and 5% DMSO; signal as percent of the non-inhibited signal
iC3b [2] = biological target: iC3b (UniProt P01024); assay: SPR; C3b deposited on a CM5 chip (amine-coupled seed, then convertase-mediated deposition to about 5000 RU), iC3b and C3dg made from it on the chip; αI domains injected as dilution series, 120 s; Biacore T200, 25 °C; HBST (10 mM HEPES, 150 mM NaCl, 0.005% Tween-20, pH 7.4) with 1 mM MgCl2; Langmuir 1:1 fit, KD calculated
iC3b [3] = biological target: iC3b (UniProt P01024); assay: SPR; competitive: αI domains at 5 µM preincubated with simvastatin (3-100 µM), injected over immobilised iC3b or ICAM-1; HBST with 1 mM MgCl2 and 5% DMSO; signal as percent of the non-inhibited signal

ICAM-1 (recombinant, Sino Biological 10346-H03H), sequence (P05362 28-480): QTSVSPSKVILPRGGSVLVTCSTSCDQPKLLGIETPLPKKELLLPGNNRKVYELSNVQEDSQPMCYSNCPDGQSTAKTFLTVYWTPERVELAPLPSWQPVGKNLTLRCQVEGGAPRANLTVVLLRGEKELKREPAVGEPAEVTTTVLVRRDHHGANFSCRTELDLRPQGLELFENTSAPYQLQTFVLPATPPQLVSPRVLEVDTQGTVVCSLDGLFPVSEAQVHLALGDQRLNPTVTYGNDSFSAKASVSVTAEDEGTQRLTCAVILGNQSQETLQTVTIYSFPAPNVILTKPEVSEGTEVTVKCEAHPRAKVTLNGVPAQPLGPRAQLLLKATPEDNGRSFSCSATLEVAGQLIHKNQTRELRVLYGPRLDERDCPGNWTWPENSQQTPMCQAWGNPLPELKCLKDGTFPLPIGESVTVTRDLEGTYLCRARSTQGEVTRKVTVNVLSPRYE

Row | residual binding activity with simvastatin (percent of the non-inhibited signal) [1] | Kd (iC3b [2]) | residual binding activity with simvastatin (percent of the non-inhibited signal) (iC3b [3]) | Substance
1 | 83% |  |  | LFA-1 αLI domain, high-affinity (HA) variant p.K312C/K319C (domain or fragment)
2 |  | 15 µM |  | CR3 αMI domain, wild type (WT) (from UniProt P11215 146-334) (domain or fragment)
3 |  | 1.8 µM | 77% | CR3 αMI domain, high-affinity (HA) variant p.I332G (from UniProt P11215 146-334) (domain or fragment)

Reference: publication PMC11853025
